What was measured:
[1] = molecular target: Deinococcus radiodurans RecA K83R mutant protein (Deinococcus radiodurans) (UniProt P42443)
[2] = molecular target: Deinococcus radiodurans RecA protein (wild type) (Deinococcus radiodurans) (UniProt P42443)

steady-state RecN ATP hydrolysis rate, order of addition RecA K83R+DNA then RecN (reaction 5; 2 μM RecN, 2 μM RecA K83R, 50 μM duplex DNA, buffer N) [1]: 56.3 µM/min
steady-state RecN ATP hydrolysis rate, order of addition RecN+DNA then RecA K83R (reaction 3; 2 μM RecN, 2 μM RecA K83R, 50 μM duplex DNA, buffer N) [1]: 53.4 µM/min
steady-state RecN ATP hydrolysis rate, order of addition RecN+RecA K83R then DNA (reaction 4; 2 μM RecN, 2 μM RecA K83R, 50 μM duplex DNA, buffer N) [1]: 47.5 µM/min
nicked circular duplex product of RecA-mediated DNA three-strand exchange under dilute conditions (0.4 μM RecA, 500 nM RecN, 45 min) [2]: > 3 fold
B1: Deinococcus radiodurans RecN protein (wild type) (natural protein)
chain: MTRKARTPKAAPVPEAVAVVEPPPPDAAPTGPRLSRLEIRNLATITQLELELGGGFCAFTGETGAGKSIIVDALGLLLGGRANHDLIRSGEKELLVTGFWGDGDESEADSASRRLSSAGRGAARLSGEVVSVRELQEWAQGRLTIHWQHSAVSLLSPANQRGLLDRRVTKEAQAYAAAHAAWREAVSRLERLQASQRERARQIDLLAFQVQEISEVSPDPGEEEGLNTELSRLSNLHTIAQAAAGGVELLSDGDLNAAGLIGEAVRALNAGAKYDETVMQLQNELRAALESVQAIAGELRDVAEGSAADPEALDRVEARLSALSKLKNKYGPTLEDVVEFGAQAAEELAGLEEDERDAGSLQADVDALHAELLKVGQALDAAREREAEPLVDSLLAVIRELGMPHARMEFALSALAEPAAYGLSDVLLRFSANPGEELGPLSDVASGGELSRVMLAVSTVLGADTPSVVFDEVDAGIGGAAAIAVAEQLSRLADTRQVLVVTHLAQIAARAHHHYKVEKQVEDGRTVSHVRLLTGDERLEEIARMLSGNTSEAALEHARELLAG

— publication PMC5442325
